From doi:10.1101/2025.07.04.663224

Legend:
[1] = target: SmGdpP74 (cytosolic region of Streptococcus mutans GdpP, residues 74-654) (Streptococcus mutans strain NCTC10449); assay: AUC
[2] = target: SmGdpP74 (cytosolic region of Streptococcus mutans GdpP, residues 74-654) (Streptococcus mutans strain NCTC10449); assay: cryo-EM structure
[3] = target: SmGdpP74 (cytosolic region of Streptococcus mutans GdpP, residues 74-654) (Streptococcus mutans strain NCTC10449); assay: SEC
[4] = target: SmGdpP74 (cytosolic region of Streptococcus mutans GdpP, residues 74-654) (Streptococcus mutans strain NCTC10449); assay: cryo-EM structure; remark: listed apart in the source
[5] = target: SmGdpP74 (cytosolic region of Streptococcus mutans GdpP, residues 74-654) (Streptococcus mutans strain NCTC10449); assay: cryo-EM structure; remark: listed apart in the source

Measured: stoichiometry N

SmGdpP74 (cytosolic region of Streptococcus mutans GdpP, residues 74-654) (domain or fragment)
4: all assays above
